Laboratory results published in US20220267440A1 (ABSOS, published 2022).
Residue numbers refer to the chain shown, from its start.

Columns and labels:
[1] = biological target: T1, recombinant CD47-Fc (Sino Biologics) (human, UniProt Q08722 19-139); assay: competition ELISA: HIS-tagged SIRP α binding to plate-bound CD47-Fc, antibody titrated
T1 construct: Bought reagent; also called human CD47-Fc; not shown: Fc

[2] = biological target: T2, recombinant human CD47 (Novoprotein cat no. C321, lot no. 0329689) (human, UniProt Q08722 19-139); assay: SPR summary table, 25 C
T2 construct: Bought reagent
Protocol: (§1) Binding kinetics were measured at 25° C. using a BioRad ProteOn XPR36 optical biosensor equipped with GLM sensor chips and equilibrated with running buffer (HBS, 0.005% TWEEN-20, 0.1 mg/mL BSA, pH 7.4).
(§2) CD47 was tested in a three-fold dilution series starting at 100 nM.

[3] = biological target: T3, human CD47 extracellular domain with a histidine- (HIS-) tag (Sino Biological, China) (human, UniProt Q08722 19-139); assay: competition ELISA on huCD47 after 10A
T3 construct: extracellular domain; also called huCD47; huCD47 protein (Sino Biological, China 10161-H08H); not shown: histidine tag

[4] = biological target: T3, human CD47 extracellular domain with a …; assay: competition ELISA on huCD47 after 27A
Protocol: (§3) A competition ELISA was performed to establish competitive binding bins. […] After washing, wells were incubated with an AlivaMab monoclonal antibody representing one of seven unique competition bins. After 1 hour the wells were washed and incubated with individual clonal anti-huCD47 AlivaMab hybridoma supernatants. […] Individual AlivaMab Mouse antibodies that were unable to bind in the presence of a mouse antibody are considered to be in the same epitope bin as that particular mouse antibody.

[5] = biological target: T3, human CD47 extracellular domain with a …; assay: competition ELISA on huCD47, row G1 Alone
Protocol: as §3

[6] = biological target: T3, human CD47 extracellular domain with a …; assay: competition ELISA on huCD47 after 10A; cross-hatched cell
Protocol: as §3

[7] = biological target: T2, recombinant human CD47 (Novoprotein cat …); assay: SPR (ProteOn XPR36), mAb captured on anti-mouse Fc, CD47 as analyte, 25 C, 1:1 model
Protocol: as §1, §2

[8] = biological target: T2, recombinant human CD47 (Novoprotein cat …); assay: SPR, antibodies binned by kd at 25 C (value is the column's head)
Protocol: as §1, §2

[9] = biological target: T3, human CD47 extracellular domain with a …; assay: competition ELISA on huCD47 after 1A
Protocol: as §3

[10] = biological target: T3, human CD47 extracellular domain with a …; assay: competition ELISA on huCD47 after 35A
Protocol: as §3

[11] = biological target: T3, human CD47 extracellular domain with a …; assay: competition ELISA on huCD47 after 141A
Protocol: as §3

[12] = biological target: T3, human CD47 extracellular domain with a …; assay: competition ELISA on huCD47 after 156A
Protocol: as §3

B1: anti-CD47 AlivaMab antibody 106 (antibody, IgG1, V domains shown)
VH: QVQLQGSGPGLVKPSETLSLTCTVSGGSINNYYWSWIRQPPGKGLEWIGYIYYSGSTNSNPSLKSRVTISVDTSKNQFSLKLNSVTAADTAVYYCARKRDAFDIWGQGTMVTVSS
VL: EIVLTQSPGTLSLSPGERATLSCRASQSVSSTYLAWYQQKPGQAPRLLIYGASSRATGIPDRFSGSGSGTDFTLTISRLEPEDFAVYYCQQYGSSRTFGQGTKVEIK
notes: Chimeric AlivaMab Mouse mAb from hybridoma: human V, CH1 and upper hinge, mouse middle hinge, CH2 and CH3, human kappa light chain
- IC50 [1]: 2.9 nM

B2: anti-CD47 AlivaMab antibody 107 (antibody, IgG1, V domains shown)
VH: QVQLQESGPGLMKPSETLSLTCTVSGGSISSYYWTWIRQPPGKGLEWIGYIYYSGSTNYNPSLKSRVTISVDTSKNQFSLKLSSVTAADTAVYYCARGRGALTAWGQGTLVTVSS
VL: DIQLTQSPSFLSASVGDRVTITCRASQDIGSYLAWCQQKPGKAPKLLIYAASTLQGGVPSRFSGSGSGTEFTLTISSLQPEDFATYYCQQLNSYPLTFGGGTKVEIK
notes: as for B1
- Kd [2]: 0.16 nM
- koff [2]: 0.00093 s⁻¹
- kon [2]: 5.7e+06 M⁻¹ s⁻¹
- competition matrix cell (no name or unit printed) [3]: 100
- competition matrix cell (no name or unit printed) [4]: 106
- competition matrix cell (no name or unit printed) [5]: 100
- competition matrix cell (no name or unit printed) [6]: 85
- Kd [7]: 0.163 nM
- koff [7]: 0.00093 s⁻¹
- kon [7]: 5.7e+06 M⁻¹ s⁻¹
- IC50 [1]: 2.7 nM

B3: anti-CD47 AlivaMab antibody 153 (antibody, IgG1, V domains shown)
VH: B1 VH with G6E, N31Y, S59Y, N83S, D100S, A101S, F102Y, I104Y, M110L
VL: DIQMTQSPSAMSASVGDRVTITCRASQGISNYLAWFQQKPGKVPRRLIYAASSLQSGVPSRFSGSGSGTEFTLTISSLQPEDFATYYCLQHNSYPWTFGQGTKVEIK
notes: Chimeric AlivaMab Mouse mAb from hybridoma: human V, CH1 and upper hinge, mouse middle hinge, CH2 and CH3, human kappa light chain; also called clone 153; mAb 153
- IC50 [1]: 27.9 nM

B4: anti-CD47 AlivaMab antibody 10 (antibody, IgG2a, V domains shown)
VH: B1 VH with G6E, N30R, N31T, S59Y, N83S, R99K, D100G
VL: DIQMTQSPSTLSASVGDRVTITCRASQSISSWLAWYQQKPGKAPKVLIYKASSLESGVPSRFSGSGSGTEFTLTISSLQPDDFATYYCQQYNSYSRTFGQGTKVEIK
notes: Chimeric AlivaMab Mouse mAb from hybridoma: human V, CH1 and upper hinge, mouse middle hinge, CH2 and CH3, human kappa light chain; also called clone 10; mAb 10
- IC50 [1]: 4.7 nM

B5: anti-CD47 AlivaMab antibody 151 (antibody, IgG1, V domains shown)
VH: B2 VH with M12V, T35S, G98K, G100K, A101Y, L102F, T103D, A104Y
VL: DIQMTQSPSSLSASVGDRVTITCRASQGISNYLAWYQQKPGKVPKLLIYAASTLQSGVPSRFSGSGSGTDFTLTISSLQPEDVATYYCQKCNSAPFTFGPGTKVDIK
notes: Chimeric AlivaMab Mouse mAb from hybridoma: human V, CH1 and upper hinge, mouse middle hinge, CH2 and CH3, human kappa light chain; also called clone 151; mAb 151
- Kd [2]: 1 nM
- koff [2]: 0.0089 s⁻¹
- kon [2]: 8.7e+06 M⁻¹ s⁻¹
- koff [8]: ~0.01 s⁻¹
- Kd [7]: 1 nM
- koff [7]: 0.0089 s⁻¹
- kon [7]: 8.7e+06 M⁻¹ s⁻¹
- IC50 [1]: 2 nM

B6: anti-CD47 AlivaMab antibody 101 (antibody, IgG1, V domains shown)
VH: B2 VH with M12V, S31F, Y50F
VL: not shown
notes: as for B1
- competition matrix cell (no name or unit printed) [3]: 92
- competition matrix cell (no name or unit printed) [5]: 100
- competition matrix cell (no name or unit printed) [6]: 61
- IC50 [1]: 15 nM

B7: anti-CD47 AlivaMab antibody 164 (antibody, IgG1, V domains shown)
VH: B2 VH with M12V, T35S, I51V, S56G, G98K, A101T, L102F, T103D, A104Y
VL: DIQMTQSPSSVSASVGDRVTITCRASQGISSWLAWYQQKPGKAPKLLIYAASSLQSGVPSRFSGSGSGTDFTLTISSLQPEDFATYFCQQANSFPLTFGGGTKVEIK
notes: Chimeric AlivaMab Mouse mAb from hybridoma: human V, CH1 and upper hinge, mouse middle hinge, CH2 and CH3, human kappa light chain; also called clone 164; mAb 164
- competition matrix cell (no name or unit printed) [9]: 103
- competition matrix cell (no name or unit printed) [3]: 97
- competition matrix cell (no name or unit printed) [4]: 108
- competition matrix cell (no name or unit printed) [10]: 117
- competition matrix cell (no name or unit printed) [11]: 100
- competition matrix cell (no name or unit printed) [12]: 120
- competition matrix cell (no name or unit printed) [5]: 100
- IC50 [1]: 4.8 nM

B8: anti-CD47 AlivaMab antibody 87 (antibody, IgG1, V domains shown)
VH: B2 VH with M12V, T35S, S83N, G98K, G100A, A101F, T103D, A104Y
VL: B7 VL with V11L, S31N, W32Y, Y36F, L46S, S56G, R61K, F87Y, A91Y, F94Y
notes: Chimeric AlivaMab Mouse mAb from hybridoma: human V, CH1 and upper hinge, mouse middle hinge, CH2 and CH3, human kappa light chain; also called clone 87; mAb 87
- IC50 [1]: 3 nM

B9: anti-CD47 AlivaMab antibody 90 (antibody, IgG1, V domains shown)
VH: B2 VH with M12V, S30N, S31N, T35S, N60H, S83T, Y93F, G100R
VL: B2 VL with L4V, D28G, G30S, C36Y, G56S, V104M
notes: Chimeric AlivaMab Mouse mAb from hybridoma: human V, CH1 and upper hinge, mouse middle hinge, CH2 and CH3, human kappa light chain; also called clone 90; mAb 90
- IC50 [1]: 53.6 nM

B10: anti-CD47 AlivaMab antibody 91 (antibody, IgG1, V domains shown)
VH: B1 VH with G6E, N30S, N31T, S56T, S59Y, N83S
VL: EIVLTQSPGTLSLSPGERATLSCRASQSVSSTYLAWSQQKPGQAPRLLIYGASSRATGIPDRFSGSGSGTDFTLTISRLEPEDFAVYYCQQYGSSRTFGQGTKVEIK
notes: Chimeric AlivaMab Mouse mAb from hybridoma: human V, CH1 and upper hinge, mouse middle hinge, CH2 and CH3, human kappa light chain; also called clone 91; mAb 91
- Kd [2]: 0.15 nM
- koff [2]: 0.00111 s⁻¹
- kon [2]: 7.2e+06 M⁻¹ s⁻¹
- Kd [7]: 0.154 nM
- koff [7]: 0.00111 s⁻¹
- kon [7]: 7.2e+06 M⁻¹ s⁻¹
- IC50 [1]: 2.1 nM

B11: anti-CD47 AlivaMab antibody 144 (antibody, IgG1, V domains shown)
VH: B2 VH with M12V, T35S, S56T, G98K, A101E, L102F, T103D, A104Y
VL: B7 VL with V15E, S31R, F87Y
notes: Chimeric AlivaMab Mouse mAb from hybridoma: human V, CH1 and upper hinge, mouse middle hinge, CH2 and CH3, human kappa light chain; also called clone 144; mAb 144
- IC50 [1]: 10 nM

B12: anti-CD47 AlivaMab antibody 5 (antibody, IgG1, V domains shown)
VH: B2 VH with M12V, T35S, R99K, A101G, L102T, T103D, A104Y
VL: B7 VL with F87Y, L96R, G100Q
notes: Chimeric AlivaMab Mouse mAb from hybridoma: human V, CH1 and upper hinge, mouse middle hinge, CH2 and CH3, human kappa light chain; also called clone 5; mAb 5
- competition matrix cell (no name or unit printed) [3]: 93
- competition matrix cell (no name or unit printed) [10]: 97
- competition matrix cell (no name or unit printed) [6]: 73
- IC50 [1]: 3.5 nM

B13: anti-CD47 AlivaMab antibody 102 (antibody, IgG1, V domains shown)
VH: B1 VH with G6E, N30S, S59Y, N83S, A101T
VL: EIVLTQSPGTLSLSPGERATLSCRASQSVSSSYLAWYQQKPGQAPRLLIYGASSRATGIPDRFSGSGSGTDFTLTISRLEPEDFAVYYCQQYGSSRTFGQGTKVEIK
notes: as for B1
- Kd [2]: 0.32 nM
- koff [2]: 0.00221 s⁻¹
- kon [2]: 6.9e+06 M⁻¹ s⁻¹
- Kd [7]: 0.32 nM
- koff [7]: 0.00221 s⁻¹
- kon [7]: 6.9e+06 M⁻¹ s⁻¹
- IC50 [1]: 2.3 nM

B14: anti-CD47 AlivaMab antibody 161 (antibody, IgG1, V domains shown)
VH: QVQLQESGPGLVKPSETLSLTCTVSGGSISSYYWSWIRQPPGKGLEWIGYIYYSGSTNYNPSLKSRVTISVDTSKNQFSLKLSSVTAADTAVYYCARSRYFDLWGRGTLVTVSS
VL: B3 VL with A13T, Y32F, R45K, W96Y, V104L
notes: Chimeric AlivaMab Mouse mAb from hybridoma: human V, CH1 and upper hinge, mouse middle hinge, CH2 and CH3, human kappa light chain; also called clone 161; mAb 161
- competition matrix cell (no name or unit printed) [9]: 106
- competition matrix cell (no name or unit printed) [4]: 105
- competition matrix cell (no name or unit printed) [10]: 109
- competition matrix cell (no name or unit printed) [11]: 107
- competition matrix cell (no name or unit printed) [12]: 112
- competition matrix cell (no name or unit printed) [5]: 100
- competition matrix cell (no name or unit printed) [6]: 89
- IC50 [1]: 3 nM

B15: anti-CD47 AlivaMab antibody 143 (antibody, IgG1, V domains shown)
VH: QVQLQESGPGLVKPSETLSLTCTVSGGSINNYYWSWIRQPPGKGLEWIGYIYYSGSTNYNPSLRSRVTISVDTSKNQFSLKLSSVAAADTAVYYCARQKGMDVWGQGTTVTVSS
VL: B3 VL with R45K, W96P
notes: Chimeric AlivaMab Mouse mAb from hybridoma: human V, CH1 and upper hinge, mouse middle hinge, CH2 and CH3, human kappa light chain; also called clone 143; mAb 143
- IC50 [1]: 96 nM

B16: anti-CD47 AlivaMab antibody 14 (antibody, IgG1, V domains shown)
VH: B14 VH with S98K, Y100G, F101L, L103I, R106Q, L109M
VL: not shown
notes: Chimeric AlivaMab Mouse mAb from hybridoma: human V, CH1 and upper hinge, mouse middle hinge, CH2 and CH3, human kappa light chain; also called clone 14; mAb 14
- IC50 [1]: 3.5 nM

B17: anti-CD47 AlivaMab antibody 85 (antibody, IgG1, V domains shown)
VH: QVQLQESGPGLVKASETLSLTCTVSGGSISGYYWSWIRQPAGKGLEWIGRIYNSGSTNYNPSLKSRVTMSVDTSKNQFSLKLSSVTAADTAVYYCARQTYLDYWGQGTLVTVSS
VL: B3 VL with N31I, R45K, W96L, Q100G
notes: Chimeric AlivaMab Mouse mAb from hybridoma: human V, CH1 and upper hinge, mouse middle hinge, CH2 and CH3, human kappa light chain; also called clone 85; mAb 85
- competition matrix cell (no name or unit printed) [9]: 98
- competition matrix cell (no name or unit printed) [4]: 98
- competition matrix cell (no name or unit printed) [10]: 104
- competition matrix cell (no name or unit printed) [11]: 102
- competition matrix cell (no name or unit printed) [12]: 95
- competition matrix cell (no name or unit printed) [5]: 100
- competition matrix cell (no name or unit printed) [6]: 83
- IC50 [1]: 4.9 nM
